Target: T1, GST-AC8 1–77 (rat, UniProt P40146 1-77)
T1 sequence (looked up): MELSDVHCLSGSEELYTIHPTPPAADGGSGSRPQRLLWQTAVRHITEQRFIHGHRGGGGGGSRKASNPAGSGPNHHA
Test: pull-down

B1: AKAP150-HA (natural protein, rat, UniProt P24587 1-714, looked up)
chain: METSVSEIQIETKDEKRPEAASPQKERQERKTATLCFKRRKKVNKKKAKAGSKTAEETEKHAPEAGGSGQRQPAGAWASIKRLVTHRKPSESAEKQKPSEAEMQPEDGALPKKKTKSKLKIPCIRFSRGAKRSRPSKLTEDSGYVRVQGEADDLEIKAQIQPDEQATQAKSTQGLQEDVIVRDGKEIQESHISNNVISGEHVIGIELELEKESSALRMRTPGSEKEAKVILVKQGVQVQEASVLENSAADSPQPVTSTAPLSPATTHQLGLEEPSDSIRESAPSGKDDGRRKTAAEEKKSGETALGQAEEASSVSQADKSVLSQAEEATVGHTEEATVIQAQSQAKEGKLSQAEEATVAQAKETVLSQAEEVKLSQIEEPAISQAKKATVGQAKEAYVSQAEEAIVGHTEKATMGQAEEATVGHIEKTTVGQAEEATVGQAEEATVGQAEEATVGQAEEATVGQAEEATVGQAGEATVSHIEKTTVGQAEEAIVGQAEEATVGQAEEATVGQAEEATVGQAEEATVDQAEEATVGQAEEATVGQAGEAAVGQAEEAIVAQAEEATVGQAGEATVGQAEKATVGQAEEPIVGQAEETVLRHASDLKVNGVDAEKPRSEESKRMEPIAIIITDTEISEFDVKKSKNVPKQFLISMENEQVGVFANDSDFEGRTSEQYETLLIETASSLVKNAIELSVEQLVNEMVSEDNQINTLFQ
With B1 the “fold interaction against GST-AC8 73–179 (densitometry, HA band relative to GST)” value was 1.6 fold.

From PMC2888445 (The Journal of Biological Chemistry, 2010)
